Experiments:
[1] = Fibrillation kinetics by Thioflavin-T (ThioT) fluorescence measurement; format: physicochemical; details: 100 μM peptide
Experimental: The fibrillation kinetics of hCT, rhCT and phCT was monitored by measuring the increase in fluorescence intensity upon thioflavin T (ThioT) binding to peptide fibrils. The ThioT stock solution (2.5 mM) was prepared in di-water and diluted 10-fold with buffer to give a working solution (250 μM). […] The peptide solution was quickly transferred to a 96-well microtiter plate and placed in a Synergy Neo2 Multi-Detection microplate reader (BioTek Instruments, Winooski, Vt.). 5 μL of ThioT working solution (250 μM) was added to 245 μL of peptide solution in each well to give a final ThioT concentration of 5 μM per well. At each time point, six replicate measurements were performed for each sample. Fibrillation was carried out for 12 or 24 h at 25° C. with continuous shaking at 731 cpm. The fluorescence intensity of ThioT was bottom-read at an interval of 10 or 15 min, at excitation and emission wavelengths of 440 nm and 482 nm, respectively.
The ThioT fluorescence data were fitted to the Boltzmann sigmoidal function as given below, using GraphPad Prism version 7.03 (GraphPad Software, La Jolla, Calif.).
where A1 is the minimum signal, A2 is the maximum signal, xo is the time at which the change in signal is 50% (t50) and dx′ is the slope of growth phase.^1 The lag time was determined either by sigmoidal fit to the fibrillation kinetics curve or using onset point determination. In sigmoidal fits, the lag time was determined as xo−2 dx′ using parameters obtained from nonlinear fit of the data to Eq. 1. […] In cases where sigmoid curve fitting could not be achieved, the t50 was estimated from the raw data as the time when the signal intensity reached half of the observed maximum value.

[2] = Secondary structure change during fibrillation by CD spectroscopy; format: physicochemical; details: 0 to 1440 min, 100 μM peptide, pH 7.4, 25° C., 731 cpm
Experimental: Changes in the secondary structure of hCT and phCT were monitored by CD spectroscopy using a Jasco J-815 spectrometer (JASCO Analytical Instruments, Easton, Md.). […] At predetermined time intervals, samples were withdrawn for CD analysis. CD spectra were recorded in a quartz cuvette with 1 mm pathlength, scanned from 190 nm to 260 nm in the far UV range, at a scan speed of 50 nm/min at 20° C. Each spectrum was reported as an average of three scans.

[3] = Visual inspection of 96-well plates after fibrillation; format: physicochemical; details: after fibrillation in 96-well plates, 24 h
[4] = Fibrillation kinetics by turbidity measurement (UV absorbance at 340 nm); format: physicochemical; details: 100 μM peptide, 731 cpm
Experimental: Fibrillation kinetics of hCT, rhCT and phCT was followed by measuring the increase in solution turbidity due to formation of soluble oligomeric species and insoluble fibrils. […] At each time point, six replicate measurements were performed for each sample. Fibrillation was carried out for 12 or 24 h at 25° C. with continuous shaking at 731 cpm. Solution turbidity was measured by UV absorbance at 340 nm at 10 or 15-min read intervals. The turbidity data was fitted to the Boltzmann sigmoidal function (Eq. 1) and analyzed as described above.

[5] = 20 mM sodium phosphate buffer pH 7.4, 25° C., continuous shaking at 731 cpm, n=6, mean±SD
[6] = after 360 min of fibrillation time
[7] = after 1440 min of fibrillation, pepsin digestion
[8] = 20 mM sodium phosphate buffer pH 7.4, 25° C., n=6, mean±SD

human calcitonin [hCT]
lag time of fibrillation, ThioT fluorescence [1, 5]: 172 ± 15 min | t50 of fibrillation, ThioT fluorescence [1, 5]: 236 ± 8 min | lag time of fibrillation, ThioT fluorescence ([1]; 20 mM sodium phosphate buffer pH 7.4, 25° C., continuous shaking at 731 cpm, n=6, mean±SD, listed as native hCT): 172 ± 15 min | change in ThioT fluorescence with time ([1]; pH 7.4, 25° C., 731 cpm): an increase in ThioT fluorescence was observed | change of CD signal during fibrillation [2]: complete loss in signal | appearance on visual inspection [3]: solid dense deposits | deuterium incorporation, fragment 1-8 [6]: 16% | deuterium incorporation, fragment 1-11 [6]: 13% | deuterium incorporation, fragment 12-19 [6]: 22% | percent deuterium uptake, intact level (after 1440 min of fibrillation): 28% | deuterium uptake, fragment 20-32 [7]: 51% | deuterium uptake, fragment 26-32 [7]: 54% | % D (percent deuterium uptake), intact level, Peak II (fibrillation time t=0 min): 68% | deuterium uptake, C-terminal fragments 20-32 and 26-32, initial value (start of fibrillation): ~60% | lag time of fibrillation, turbidity [4, 8]: 198 ± 20 min | t50 of fibrillation, turbidity [4, 8]: 257 ± 15 min | change in turbidity signal ([4]; pH 7.4, 25° C.): An increase in solution turbidity was also observed

Source: patent US20230151073A1, “FIBRILLATION RESISTANT CALCITONIN PEPTIDES AND USES THEREOF” (Purdue Research Foundation, priority 2020, published 2023)
